B1: ClpP protease from Thermus thermophilus (tetradecameric ClpP14, 300 kDa) (enzyme)
chain: not shown
B2: ClpX^ΔN unfoldase from Thermus thermophilus (lacks the first 52 residues) (domain or fragment)
chain: not shown

How the values were obtained:
[1] = biological target: the molecule itself; assay: SEC
[2] = biological target: the molecule itself; assay: negative-stain electron microscopy

Protein	stoichiometry N [1]	stoichiometry N [2]
B1	14	
B2		6
